For experiment [1], the target named is T1, Cynomolgus Tissue Factor (cynomolgus).
T1 chain: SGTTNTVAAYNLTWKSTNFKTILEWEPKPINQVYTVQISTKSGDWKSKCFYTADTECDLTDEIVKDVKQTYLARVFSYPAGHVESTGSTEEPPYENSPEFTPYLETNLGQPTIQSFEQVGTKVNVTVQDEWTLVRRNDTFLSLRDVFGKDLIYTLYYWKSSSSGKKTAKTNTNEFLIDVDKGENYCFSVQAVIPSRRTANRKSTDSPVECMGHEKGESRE
The experiment is described as follows: BLI. (Biolayer interferometry detects binding as a change in optical thickness at a sensor tip.)

The target of experiment [2] is T2, Human Tissue Factor (human).
T2 chain: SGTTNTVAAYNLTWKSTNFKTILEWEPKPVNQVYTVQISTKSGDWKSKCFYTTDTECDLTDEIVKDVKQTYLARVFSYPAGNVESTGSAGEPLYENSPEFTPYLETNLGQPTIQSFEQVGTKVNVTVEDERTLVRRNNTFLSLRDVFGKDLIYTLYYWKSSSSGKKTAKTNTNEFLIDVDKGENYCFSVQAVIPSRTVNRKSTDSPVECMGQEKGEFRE
The experiment is described as follows: BLI.

For experiment [3], the target named is T3, Mouse Tissue Factor (mouse).
T3 chain: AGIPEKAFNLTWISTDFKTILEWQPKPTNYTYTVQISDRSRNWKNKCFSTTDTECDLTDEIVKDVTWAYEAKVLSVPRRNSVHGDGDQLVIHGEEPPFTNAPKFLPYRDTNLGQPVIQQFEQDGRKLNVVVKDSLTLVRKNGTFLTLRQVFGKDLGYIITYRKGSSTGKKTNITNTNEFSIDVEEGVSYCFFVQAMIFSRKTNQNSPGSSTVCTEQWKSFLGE
The experiment is described as follows: BLI.

The target of experiment [4] is T2, Human Tissue Factor. The experiment is described as follows: BLI, batch 2.
In experiment [5] the target is T1, Cynomolgus Tissue Factor. The experiment can be described thus: BLI, batch 1.
For experiment [6], the target named is T2, Human Tissue Factor. The experiment can be described thus: BLI, batch 1.
Experiment [7] deals with T3, Mouse Tissue Factor. The experiment is described as follows: BLI, batch 1.
The target in experiment [8] is T1, Cynomolgus Tissue Factor. The experiment is described as follows: BLI, batch 2.
Experiment [9] concerns the target T3, Mouse Tissue Factor. The experiment can be described thus: BLI, batch 2.

What is called Kd is a measure of binding affinity in units of concentration. Lower therefore signals tighter binding.

B1: TF-ADC 6-8 (antibody)
chain 1: not shown
chain 2: DIQMTQSPSTLSASVGDRVTITCQASQSINNWLAWYQQKPGKAPKLLIYKAYNLESGVPSRFSGSGSGTEFTLTISSLQPDDFATYYCQLFQSLPPFTFGGGTKVEIKRTVAAPSVFIFPPSDEQLKSGTASVVCLLNNFYPREAKVQWKVDNALQSGNSQESVTEQDSKDSTYSLSSTLTLSKADYEKHKVYACEVTHQGLSSPVTKSFNRGEC
modifications: ADC, linker-payload conjugated at fGly' in CH1 and C-terminus, DAR about 8
Consider B1, for which the Kd is 19 µM in the experiment with Cynomolgus Tissue Factor [1], 7.1 µM in the experiment with Human Tissue Factor [2] and 210 µM with Mouse Tissue Factor [3].

B2: EXMA-006 (antibody)
chain 1: QVQLVQSGAEVKKPGASVKVSCKASGYTFDVYGISWVRQAPGQGLEWMGWIAPYSGNTNYAQKLQGRVTMTTDTSTSTAYMELRSLRSDDTAVYYCARDAGTYSPFGYGMDVWGQGTTVTVSS
chain 2: DIQMTQSPSTLSASVGDRVTITCQASQSINNWLAWYQQKPGKAPKLLIYKAYNLESGVPSRFSGSGSGTEFTLTISSLQPDDFATYYCQLFQSLPPFTFGGGTKVEIK
modifications: unconjugated TF antibody; representative batches 1 and 2
In the case of B2, the Kd was determined as 36 µM with Human Tissue Factor [4]; 0.000673 µM in the experiment with Cynomolgus Tissue Factor [5]; 0.00113 µM in the experiment with Human Tissue Factor [6]; 0.107 µM in the experiment with Mouse Tissue Factor [7]; 240 µM with Cynomolgus Tissue Factor [8]; 2000 µM with Mouse Tissue Factor [9].

These data come from patent publication US20260325667 (published 2026).
